According to publication PMC10629583 (2023):
Where no end group is shown, it is not given here. [ ]: non-standard residue; d: D form. The star is where a group is joined. FITC = O=C1OC2(c3ccc(O)cc3Oc3cc(O)ccc32)c2ccc(NC(=S)*)cc21; pT = C[C@@H](OP(=O)(O)O)[C@H](N)C(=O)O; Ahx = NCCCCCC(=O)O

Key:
Test in all cases: FP
FITC-GPLATSpTPKNG = target: T1, FITC-GPLATSpTPKNG (synthetic construct)
T1 chain: {FITC}-GPLATS[pT]PKNG

FITC-GPMQTSpTPKNG = target: T2, FITC-GPMQTSpTPKNG (synthetic construct)
T2 chain: {FITC}-GPMQTS[pT]PKNG

[1] = target: PBD1 (residues 345–603) F559K (human, UniProt P53350 345-603, F559K)
[2] = target: PBD1 (residues 345–603) F559R (human, UniProt P53350 345-603, F559R)
[3] = target: PBD1 (residues 345–603) F559E (human, UniProt P53350 345-603, F559E)
[4] = target: Plk1 polo-box domain, PBD1 (residues 345–603) WT (human, UniProt P53350 345-603)
[5] = target: PBD1 (residues 345–603) F559D (human, UniProt P53350 345-603, F559D)
PBD1 (residues 345–603) F559D, sequence (P53350 345-603 F559D): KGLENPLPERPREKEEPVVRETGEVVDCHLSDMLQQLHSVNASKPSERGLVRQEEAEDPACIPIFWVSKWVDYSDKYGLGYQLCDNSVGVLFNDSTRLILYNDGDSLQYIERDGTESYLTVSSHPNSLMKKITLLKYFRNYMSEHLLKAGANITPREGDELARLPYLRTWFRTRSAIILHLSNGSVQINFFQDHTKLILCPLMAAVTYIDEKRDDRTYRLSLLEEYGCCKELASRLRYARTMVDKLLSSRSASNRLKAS

PBD1 (residues 345–603) F559R, sequence (P53350 345-603 F559R): as the sequence (P53350 345-603 F559D) above, with D215R counted along it
Plk1 polo-box domain, PBD1 (residues 345–603) WT, sequence (P53350 345-603): as the sequence (P53350 345-603 F559D) above, with D215F counted along it
PBD1 (residues 345–603) F559E, sequence (P53350 345-603 F559E): as the sequence (P53350 345-603 F559D) above, with D215E counted along it
PBD1 (residues 345–603) F559K, sequence (P53350 345-603 F559K): as the sequence (P53350 345-603 F559D) above, with D215K counted along it

B1: MBP-PBD3 A612F (protein)
chain: TPPNPARSLFAKVTKSLFGRKKKSKNHAQERDEVSGLVSGLMRTSVGHQDARPEAPAASGPAPVSLVETAPEDSSPRGTLASSGDGFEEGLTVATVVESALCALRNCIAFMPPAEQNPAPLAQPEPLVWVSKWVDYSNKFGFGYQLSSRRVAVLFNDGTHMALSANRKTVHYNPTSTKHFSFSVGAVPRALQPQLGILRYFASYMEQHLMKGGDLPSVEEVEVPAPPLLLQWVKTDQALLMLFSDGTVQVNFYGDHTKLILSGWEPLLVTFVARNRSFCTYLASHLRQLGCSPDLRQRLRYALRLLRDRSPA
**Q.** With B1 as the binder, how does the Kd (FITC-GPLATSpTPKNG) read?
**A.** Its Kd is 85.4 nM.

B2: MBP-PBD3 (protein)
chain: TPPNPARSLFAKVTKSLFGRKKKSKNHAQERDEVSGLVSGLMRTSVGHQDARPEAPAASGPAPVSLVETAPEDSSPRGTLASSGDGFEEGLTVATVVESALCALRNCIAFMPPAEQNPAPLAQPEPLVWVSKWVDYSNKFGFGYQLSSRRVAVLFNDGTHMALSANRKTVHYNPTSTKHFSFSVGAVPRALQPQLGILRYFASYMEQHLMKGGDLPSVEEVEVPAPPLLLQWVKTDQALLMLFSDGTVQVNFYGDHTKLILSGWEPLLVTFVARNRSACTYLASHLRQLGCSPDLRQRLRYALRLLRDRSPA
**Q.** Which Kd (FITC-GPLATSpTPKNG) does the source give for B2 here?
**A.** The Kd was 62.4 nM.

B3: PBD2 S652F (protein)
chain: HLSSPAKNFFKKAAAALFGGKKDKARYIDTHNRVSKEDEDIYKLRHDLKKTSITQQPSKHRTDEELQPPTTTVARSGTPAVENKQQIGDAIRMIVRGTLGSCSSSSECLEDSTMGSVADTVARVLRGCLENMPEADCIPKEQLSTSFQWVTKWVDYSNKYGFGYQLSDHTVGVLFNNGAHMSLLPDKKTVHYYAELGQCSVFPATDAPEQFISQVTVLKYFSHYMEENLMDGGDLPSVTDIRRPRLYLLQWLKSDKALMMLFNDGTFQVNFYHDHTKIIICSQNEEYLLTYINEDRIFTTFRLTTLLMSGCSSELKNRMEYALNMLLQRCN
**Q.** For B3, which Kd (FITC-GPMQTSpTPKNG) is on record?
**A.** The Kd was 62.7 nM.

B4: PBD2 (protein)
chain: HLSSPAKNFFKKAAAALFGGKKDKARYIDTHNRVSKEDEDIYKLRHDLKKTSITQQPSKHRTDEELQPPTTTVARSGTPAVENKQQIGDAIRMIVRGTLGSCSSSSECLEDSTMGSVADTVARVLRGCLENMPEADCIPKEQLSTSFQWVTKWVDYSNKYGFGYQLSDHTVGVLFNNGAHMSLLPDKKTVHYYAELGQCSVFPATDAPEQFISQVTVLKYFSHYMEENLMDGGDLPSVTDIRRPRLYLLQWLKSDKALMMLFNDGTFQVNFYHDHTKIIICSQNEEYLLTYINEDRISTTFRLTTLLMSGCSSELKNRMEYALNMLLQRCN
**Q.** How did the Kd (FITC-GPMQTSpTPKNG) turn out when B4 was run?
**A.** The Kd was 80.2 nM.

B5: FITC-Ahx-DPPLHSpTAI-NH2 (peptide)
peptide: {FITC-Ahx}-DPPLHS[pT]AI-NH2
SMILES: CC[C@H](C)[C@H](NC(=O)[C@H](C)NC(=O)[C@@H](NC(=O)[C@H](CO)NC(=O)[C@H](Cc1c[nH]cn1)NC(=O)[C@H](CC(C)C)NC(=O)[C@@H]1CCCN1C(=O)[C@@H]1CCCN1C(=O)[C@H](CC(=O)O)NC(=O)CCCCCNC(=S)Nc1ccc2c(c1)C(=O)OC21c2ccc(O)cc2Oc2cc(O)ccc21)[C@@H](C)OP(=O)(O)O)C(N)=O
**Q.** What does the source list for B5?
**A.** Kd [1]: 704 nM; Kd [2]: 460 nM; Kd [3]: 124 nM; Kd [4]: 16.8 nM; Kd [5]: 28.1 nM
